{"source": "paper doi:10.1101/2020.04.23.053322", "key": {"[1]": {"target": "ATF6-CFP (human ATF6 fused to mCerulean on the C-terminal side) (human) (UniProt P18850)", "sequence (P18850 whole entry, the tested form may be a part)": "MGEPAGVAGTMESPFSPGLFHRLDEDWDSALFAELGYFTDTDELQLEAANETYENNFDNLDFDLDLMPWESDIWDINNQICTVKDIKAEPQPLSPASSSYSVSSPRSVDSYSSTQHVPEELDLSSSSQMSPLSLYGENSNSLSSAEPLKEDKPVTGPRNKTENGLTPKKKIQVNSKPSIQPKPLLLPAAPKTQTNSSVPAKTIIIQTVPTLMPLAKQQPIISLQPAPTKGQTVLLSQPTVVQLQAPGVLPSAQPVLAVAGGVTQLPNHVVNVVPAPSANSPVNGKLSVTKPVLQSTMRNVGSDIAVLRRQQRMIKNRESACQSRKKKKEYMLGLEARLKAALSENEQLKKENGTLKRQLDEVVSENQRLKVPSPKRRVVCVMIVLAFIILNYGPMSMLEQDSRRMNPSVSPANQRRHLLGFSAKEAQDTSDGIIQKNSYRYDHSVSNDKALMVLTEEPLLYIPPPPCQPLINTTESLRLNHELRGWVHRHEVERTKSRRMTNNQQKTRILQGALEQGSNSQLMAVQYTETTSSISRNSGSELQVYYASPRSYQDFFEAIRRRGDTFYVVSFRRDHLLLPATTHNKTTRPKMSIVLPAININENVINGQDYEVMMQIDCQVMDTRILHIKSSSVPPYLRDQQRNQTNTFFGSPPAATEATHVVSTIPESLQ", "test": "FRET or BRET"}, "[2]": {"target": "ATF6-CFP (human ATF6 fused to mCerulean on the C-terminal side) (human) (UniProt P18850)", "test": "FRET or BRET", "remark": "listed apart in the source"}}, "note": "Where two headings read alike, the source gives them in different places.", "data": [{"substance": "mVenus-tagged sorcin (YFP-SRI) (from UniProt P30626 1-198) (natural protein)", "values": [{"measurement": "FRET efficiency", "setting": "[1]", "value": 11.4, "unit": "%"}, {"measurement": "FRET efficiency", "setting": "[2]", "value": 11.7, "unit": "%"}]}]}
